Experimental findings from US20210130436A1 (published 2021) are described below.

Positions count from the first letter of the chain named. Names may count otherwise.

In assay [1] the target is T1, PD-1-Fc (UniProt Q15116 25-167).
T1 construct: not shown: Fc not described
Put plainly: ForteBio (BLI), PD-1-Fc.

The target in assay [2] is T2, human CD28, full length, expressed on transfected HEK293 cells (human, UniProt P10747 19-220).
T2 construct: Full-length surface expression construct from Genscript
The assay is described as follows: flow cytometry, HEK293 cells transfected with human CD28. For orientation: In flow cytometry, cells or beads pass a laser one at a time.

The target of assay [3] is T3, CD96 (UniProt P40200 22-585, limits assumed).
T3 construct: whole, on cells
T3 sequence (looked up): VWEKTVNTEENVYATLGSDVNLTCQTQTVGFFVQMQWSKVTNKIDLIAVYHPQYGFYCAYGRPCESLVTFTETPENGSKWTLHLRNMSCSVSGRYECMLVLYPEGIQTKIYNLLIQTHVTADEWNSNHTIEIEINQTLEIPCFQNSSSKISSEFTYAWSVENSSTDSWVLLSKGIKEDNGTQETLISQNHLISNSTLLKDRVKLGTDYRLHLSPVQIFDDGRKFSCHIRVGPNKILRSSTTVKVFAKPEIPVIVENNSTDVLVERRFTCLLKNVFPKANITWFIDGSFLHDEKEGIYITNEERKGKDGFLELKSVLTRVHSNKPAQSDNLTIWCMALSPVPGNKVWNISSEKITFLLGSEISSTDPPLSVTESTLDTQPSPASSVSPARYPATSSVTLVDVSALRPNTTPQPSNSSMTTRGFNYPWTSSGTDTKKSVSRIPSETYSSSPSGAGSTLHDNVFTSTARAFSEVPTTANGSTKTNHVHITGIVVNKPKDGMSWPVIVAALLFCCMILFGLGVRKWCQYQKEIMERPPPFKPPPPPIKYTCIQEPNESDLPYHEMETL
The assay is described as follows: flow cytometry on CD96-expressing cells.

The target in assay [4] is T4, TIGIT (Homo sapiens (Human), UniProt Q495A1 23-244).
T4 construct: also called TIGIT tfxn
T4 sequence: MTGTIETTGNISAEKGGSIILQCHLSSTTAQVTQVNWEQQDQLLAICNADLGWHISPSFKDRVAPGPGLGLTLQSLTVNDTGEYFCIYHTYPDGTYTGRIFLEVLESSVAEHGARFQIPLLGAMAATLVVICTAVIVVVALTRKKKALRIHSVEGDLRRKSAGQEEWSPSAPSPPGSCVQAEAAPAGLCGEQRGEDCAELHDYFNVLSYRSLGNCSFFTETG
Put plainly: flow cytometry on TIGIT-transfected Expi293 cells.

For assay [5], the target named is T3, CD96. Put plainly: flow cytometry on CD96-expressing cells; reference itself.
For assay [6], the target named is T5, CD226 (Homo sapiens (Human), UniProt Q15762 19-336).
T5 construct: also called CD226 tfxn
T5 sequence: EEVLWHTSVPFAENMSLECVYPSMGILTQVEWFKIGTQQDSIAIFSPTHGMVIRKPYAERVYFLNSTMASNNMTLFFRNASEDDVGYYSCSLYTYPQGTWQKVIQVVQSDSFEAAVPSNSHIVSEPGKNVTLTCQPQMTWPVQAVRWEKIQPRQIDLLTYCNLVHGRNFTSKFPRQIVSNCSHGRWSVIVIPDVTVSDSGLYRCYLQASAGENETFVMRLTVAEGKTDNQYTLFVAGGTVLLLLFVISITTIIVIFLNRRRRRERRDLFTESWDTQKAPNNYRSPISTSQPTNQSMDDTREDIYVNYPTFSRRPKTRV
Put plainly: flow cytometry on CD226-transfected Expi293 cells.

The target of assay [7] is T5, CD226. Put plainly: flow cytometry on CD226-transfected Expi293 cells; reference itself.
Assay [8] concerns the target T4, TIGIT. Put plainly: flow cytometry on TIGIT-transfected Expi293 cells; reference itself.
For assay [9], the target named is T6, TIGIT (UniProt Q495A1 22-244).
T6 construct: whole, on cells
T6 sequence (looked up): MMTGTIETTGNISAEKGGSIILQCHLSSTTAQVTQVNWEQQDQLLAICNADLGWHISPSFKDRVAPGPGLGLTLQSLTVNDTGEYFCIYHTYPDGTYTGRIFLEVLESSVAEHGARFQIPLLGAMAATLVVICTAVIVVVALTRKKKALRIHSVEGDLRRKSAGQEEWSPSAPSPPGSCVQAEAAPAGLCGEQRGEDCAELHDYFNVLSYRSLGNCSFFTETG
Put plainly: flow cytometry, MFI ratio to wildtype CD155 ECD-Fc, TIGIT cells.

For assay [10], the target named is T6, TIGIT. The assay is described as follows: flow cytometry on cells expressing TIGIT, Fc fusion at 100 nM.
Assay [11] addresses T7, TIGIT (UniProt Q495A1 22-244).
T7 construct: whole, on cells; Expressed on transfected cells
T7 sequence (looked up): T6 sequence (looked up)
Put plainly: flow cytometry, Fc fusion at 25 nM on cells expressing TIGIT.

Assay [12] concerns the target T8, human PD-L1, full length, expressed on transfected HEK293 cells (human, UniProt Q9NZQ7 19-290).
T8 construct: Full-length surface expression construct from Genscript; also called CD274; B7-H1
Put plainly: flow cytometry, HEK293 cells transfected with human PD-L1.

In assay [13] the target is T9, human CTLA-4, full-length, on transduced CHO cells (human, UniProt P16410 36-223).
T9 construct: Full-length surface expression construct transduced into CHO cells by lentivirus; also called huCTLA4
The assay is described as follows: flow cytometry MFI on CHO/huCTLA4 relative to WT CD80 ECD-Fc (R&D).

The target of assay [14] is T10, human PD-L1, full-length, on transduced CHO cells (human, UniProt Q9NZQ7 19-290).
T10 construct: Full-length surface expression construct transduced into CHO cells by lentivirus; also called huPD-L1; CD274
The assay is described as follows: flow cytometry MFI on CHO/huPD-L1 relative to WT CD80 ECD-Fc (R&D).

The target of assay [15] is T11, human CD28, endogenous on Jurkat/IL2 reporter cells (human, UniProt P10747 19-220).
T11 construct: Endogenously expressed on Jurkat/IL2 reporter cells
The assay is described as follows: flow cytometry MFI on Jurkat (CD28) relative to WT CD80 ECD-Fc (R&D).

For assay [16], the target named is T10, human PD-L1, full-length, on transduced …. Put plainly: flow cytometry; binding to CHO/huPD-L1 compared to binding to Jurkat (CD28).
Assay [17] addresses T12, human PD-L1, expressed on cells (human, UniProt Q9NZQ7 19-290).
T12 construct: On CHO/PD-L1, K562/OKT3/PD-L1 and CHO/OKT3/PD-L1 aAPC, huPD-L1-transduced MC38 cells, or primary human monocytes; also called huPD-L1; hPD-L1
Put plainly: flow cytometry on CHO/PD-L1 cells, then fluorescently conjugated PD-1-Fc (FIG. 9D).

The target of assay [18] is T13, TIGIT (Homo sapiens (Human), UniProt Q495A1 23-244).
T13 construct: Expressed on transfected Expi293 cells; also called TIGIT tfxn
T13 sequence: T4 sequence
The assay is described as follows: flow cytometry, TIGIT-transfected Expi293 cells.

For assay [19], the target named is T14, CD226 (Homo sapiens (Human), UniProt Q15762 19-336).
T14 construct: Expressed on transfected cells
T14 sequence: T5 sequence
Put plainly: flow cytometry, CD226-transfected Expi293 cells.

The target of assay [20] is T15, CD96 (UniProt P40200 22-585, limits assumed).
T15 construct: whole, on cells
T15 sequence (looked up): T3 sequence (looked up)
Put plainly: flow cytometry on cells expressing CD96.

T10 sequence (Q9NZQ7 19-290): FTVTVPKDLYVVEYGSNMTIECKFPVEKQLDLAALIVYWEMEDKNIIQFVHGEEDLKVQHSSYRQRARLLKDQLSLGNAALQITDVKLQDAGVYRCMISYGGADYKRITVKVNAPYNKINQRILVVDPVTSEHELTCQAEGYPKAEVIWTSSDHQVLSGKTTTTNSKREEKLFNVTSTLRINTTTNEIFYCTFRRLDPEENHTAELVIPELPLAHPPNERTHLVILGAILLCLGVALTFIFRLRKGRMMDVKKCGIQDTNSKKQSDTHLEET
T8 sequence (Q9NZQ7 19-290): as above
T12 sequence (Q9NZQ7 19-290): as above
T9 sequence (P16410 36-223): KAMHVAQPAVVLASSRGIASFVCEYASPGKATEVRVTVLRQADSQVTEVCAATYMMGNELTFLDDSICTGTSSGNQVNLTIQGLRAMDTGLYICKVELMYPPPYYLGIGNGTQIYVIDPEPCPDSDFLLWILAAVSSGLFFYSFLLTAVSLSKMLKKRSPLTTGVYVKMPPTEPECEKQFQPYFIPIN
T1 sequence (Q15116 25-167): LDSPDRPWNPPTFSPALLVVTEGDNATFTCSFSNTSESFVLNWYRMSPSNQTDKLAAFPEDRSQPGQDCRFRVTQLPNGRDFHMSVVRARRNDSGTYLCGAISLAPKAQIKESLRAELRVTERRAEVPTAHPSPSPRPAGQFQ

B1: PD-L2 V89D IgV-Fc (Fc fusion, not shown: a dimerising Fc or GST)
chain: LFTVTVPKELYIIEHGSNVTLECNFDTGSHVNLGAITASLQKVENDTSPHRERATLLEEQLPLGKASFHIPQVQVRDEGQYQCIIIYGDAWDYKYLTLKVKA
For B1, the “Response Units” value in assay [1] came out at 0.005 Response Units.

B2: WT CD80 ECD-Fc (inert) (Fc fusion, not shown: a dimerising Fc or GST)
chain: VIHVTKEVKEVATLSCGHNVSVEELAQTRIYWQKEKKMVLTMMSGDMNIWPEYKNRTIFDITNNLSIVILALRPSDEGTYECVVLKYEKDAFKREHLAEVTLSVKADFPTPSISDFEIPTSNIRRIICSTSGGFPEPHLSWLENGEELNAINTTVSQDPETELYAVSSKLDFNMTTNHSFMCLIKYGHLRVNQTFNWNTTKQEHFPDN
notes: also called wild-type CD80-ECD-Fc (inert)
As to B2, the “MFI at 66.6 nM” value in assay [2] was 3070 MFI.

B3: wild-type CD155 IgV-Fc (Fc fusion, not shown: a dimerising Fc or GST)
chain: WPPPGTGDVVVQAPTQVPGFLGDSVTLPCYLQVPNMEVTHVSQLTWARHGESGSMAVFHQTQGPSYSESKRLEFVAARLGAELRNASLRMFGLRVEDEGNYTCLFVTFPQGSRSVDIWLRVL
Consider B3, for which the results for the MFI in assay [3], in assay [4] and in assay [6] were 3080 MFI, 2720 MFI and 3720 MFI, respectively. Moreover, the MFI parental ratio in [5], in assay [7] and in assay [8] was 1 fold in each case.

B4: CD155 IgV Fc (Fc fusion, not shown: a dimerising Fc or GST)
chain: B3 chain
Turning to B4, the “Fold ↑ to WT ECD” value in assay [9] amounted to 0.01 fold. Further, in [10], the “MFI at 100 nM” value amounted to 4690 MFI.

B5: variant CD155 IgV-Fc V9L/V11M/P18S/N35S/S54G/Q62K/L79P/L104M/T107M/V115M (Fc fusion, not shown: a dimerising Fc or GST)
chain: B3 chain with V9L, V11M, P18S, N35S, S54G, Q62K, L79P, L104M, T107M, V115M
notes: also called V9L/V11M/P18S/N355/S54G/Q62K/L79P/L104M/T107M/V115M
Consider B5, for which, in assay [11], the “MFI at 25 nM” value was determined as 3000 MFI.

B6: variant CD80 IgV-Fc E35G/K54E/A71D/L72P (Fc fusion)
chain: VIHVTKEVKEVATLSCGHNVSVEELAQTRIYWQKGKKMVLTMMSGDMNIWPEYENRTIFDITNNLSIVILDPRPSDEGTYECVVLKYEKDAFKREHLAEVTLSVKAD
notes: not shown: which one is
Turning to B6, the “MFI at 22.2 nM” value in assay [12] worked out at 1580 MFI.

B7: variant CD80 IgV-Fc E35D/M47V/A71G (Fc fusion, not shown: a dimerising Fc or GST)
chain: B6 chain with G35D, M47V, E54K, D71G, P72L
On to B7, for which the “Fold change to WT CD80” value in assay [13] amounted to 1.44 fold; in [14], 3.05 fold; in assay [15] it was 0.35 fold. In assay [16], the “Ratio of PDL1:CD28” value was determined as 6 ratio.

B8: CD80 variant H18Y/V22A/E35D/M47V/T62S/A71G IgV (SEQ ID NO: 2275)-Fc (inert) (Fc fusion, not shown: small tags and cut ends)
chain: VIHVTKEVKEVATLSCGYNVSAEELAQTRIYWQKDKKMVLTMMSGDVNIWPEYKNRTIFDISNNLSIVILGLRPSDEGTYECVVLKYEKDAFKREHLAEVTLSVKADEPKSSDKTHTCPPCPAPEAEGAPSVFLFPPKPKDTLMISRTPEVTCVVVDVSHEDPEVKFNWYVDGVEVHNAKTKPREEQYNSTYRVVSVLTVLHQDWLNGKEYKCKVSNKALPAPIEKTISKAKGQPREPQVYTLPPSREEMTKNQVSLTCLVKGFYPSDIAVEWESNGQPENNYKTTPPVLDSDGSFFLYSKLTVDKSRWQQGNVFSCSVMHEALHNHYTQKSLSLSPG
notes: also called H18Y/V22A/E35D/M47V/T62S/A71G CD80 IgV-Fc; CD80 vIgD-Fc
Consider B8, for which, in assay [17], the binding result was “binds”.

B9: variant CD112 IgV-Fc S118Y (Fc fusion)
chain: QDVRVQVLPEVRGQLGGTVELPCHLLPPVPGLYISLVTWQRPDAPANHQNVAAFHPKMGPSFPSPKPGSERLSFVSAKQSTGQDTEAELQDATLALHGLTVEDEGNYTCEFATFPKGYVRGMTWLRV
notes: IgV-Fc fusion; not shown: linker and Fc
B9: the MFI in [18] was determined as 2920 MFI; in [19], 2000 MFI.

B10: CD112 Y33H/N47K/Q79R/N106Y/A112V IgV-Fc (Fc fusion, not shown: a dimerising Fc or GST)
chain: B9 chain with Y33H, N47K, Q79R, N106Y, A112V, Y118S
With B10, in [20], the “MFI at 100 nM” value worked out at 1680 MFI.
